Assay results as given in article doi:10.1101/2023.10.03.560691.
Ends that are not written are not given here.

B1: 6xHis-tagged ubiquitin fusion protein with the designed Orf63 binding peptide (designed binder)
chain: GGLVPRGSGDTKELILAIARKVKEMIKNS
modifications: also: fused to 6xHis-tagged ubiquitin

Assays:
[1] = target: Phage λ Orf63, 6xHis-Flag affinity tagged (phage λ); experiment: SEC-MALS
[2] = target: Phage λ Orf63, 6xHis-Flag affinity tagged (phage λ); experiment: BLI

Row | Molecule | stoichiometry N [1] | Kd [2]
1 | Phage λ Orf63, 6xHis-Flag affinity tagged (natural protein) | 2 | –
2 | B1 | – | > 20 µM
